The values below come from paper PMC2917178 (Biochemistry, 2010).

Values joined by “and” are separate entries in the source; they are usually repeats but may differ in a detail not shown here. Equal entries are not always repeated.

In data set [1] the target is Rtt109 D288N (with Vps75) (Saccharomyces cerevisiae, UniProt P53853+Q07794, D288N). In kind it is biochemical, yeast (Saccharomyces cerevisiae).
Data set [2] has as its target Rtt109 D287N (with Vps75) (Saccharomyces cerevisiae, UniProt P53853+Q07794, D287N). In kind it is biochemical, yeast (Saccharomyces cerevisiae). Conditions: H3 peptide saturation.
For data set [3], the target named is T1, Rtt109 D287A/D288A (with Vps75) (Saccharomyces cerevisiae, UniProt P53853+Q07794, D287A/D288A). The format is biochemical, yeast (Saccharomyces cerevisiae).
T1 sequence (P53853 whole entry, one chain of several): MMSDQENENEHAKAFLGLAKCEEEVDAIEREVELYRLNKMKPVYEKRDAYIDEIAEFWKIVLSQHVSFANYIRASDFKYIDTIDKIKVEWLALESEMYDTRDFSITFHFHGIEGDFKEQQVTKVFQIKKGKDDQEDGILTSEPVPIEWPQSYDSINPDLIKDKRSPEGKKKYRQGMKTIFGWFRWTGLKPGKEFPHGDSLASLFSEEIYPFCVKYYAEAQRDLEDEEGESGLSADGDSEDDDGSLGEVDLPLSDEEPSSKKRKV
For data set [4], the target named is T1, Rtt109 D287A/D288A (with Vps75). In kind it is biochemical, yeast (Saccharomyces cerevisiae). The settings on record: H3 peptide saturation.
In a further data set the test system is Esa1. Conditions: E338Q vs wildtype Esa1, ref [35]; cited from earlier work.

Chain of Rtt109 D288N (with Vps75) (P53853 whole entry, one chain of several): as above
Chain of Rtt109 D287N (with Vps75) (P53853 whole entry, one chain of several): as above

B1: D288N: single point mutant of Rtt109 (protein, UniProt Q07794 1-436, looked up, variant D288N)
Histone acetyltransferase …: MSLNDFLSSVLPVSEQFEYLSLQSIPLETHAVVTPNKDDKRVPKSTIKTQHFFSLFHQGKVFFSLEVYVYVTLWDEADAERLIFVSKADTNGYCNTRVSVRDITKIILEFILSIDPNYYLQKVKPAIRSYKKISPELISAASTPARTLRILARRLKQSGSTVLKEIESPRFQQDLYLSFTCPREILTKICLFTRPASQYLFPDSSKNSKKHILNGEELMKWWGFILDRLLIECFQNDTQAKLRIPGEDPARVRSYLRGMKYPLWQVGDIFTSKENSLAVYNIPLFPDNPKARFIHQLAEEDRLLKVSLSSFWIELQERQEFKLSVTSSVMGISGYSLATPSLFPSSADVIVPKSRKQFRAIKKYITGEEYDTEEGAIEAFTNIRDFLLLRMATNLQSLTGKREHRERNQPVPASNINTLAITMLKPRKKAKALPKT
Regarding B1, in data set [1] (AcCoA), the “decrease in kcat/Km for AcCoA” value came out at 1000 fold and the “decrease of kcat/Km for AcCoA versus wildtype” value is recorded as ~3 orders of magnitude. Also, the “increase in Km for AcCoA versus wildtype” value in data set [1] (AcCoA saturation) is approximately 16 fold. Further, the “decrease of kcat versus wildtype” value in data set [1] (H3 peptide saturation) was ~50 fold and 50-100 fold.

B2: D287N: single point mutant of Rtt109 (protein, UniProt Q07794 1-436, looked up, variant D287N)
Histone acetyltransferase …: MSLNDFLSSVLPVSEQFEYLSLQSIPLETHAVVTPNKDDKRVPKSTIKTQHFFSLFHQGKVFFSLEVYVYVTLWDEADAERLIFVSKADTNGYCNTRVSVRDITKIILEFILSIDPNYYLQKVKPAIRSYKKISPELISAASTPARTLRILARRLKQSGSTVLKEIESPRFQQDLYLSFTCPREILTKICLFTRPASQYLFPDSSKNSKKHILNGEELMKWWGFILDRLLIECFQNDTQAKLRIPGEDPARVRSYLRGMKYPLWQVGDIFTSKENSLAVYNIPLFPNDPKARFIHQLAEEDRLLKVSLSSFWIELQERQEFKLSVTSSVMGISGYSLATPSLFPSSADVIVPKSRKQFRAIKKYITGEEYDTEEGAIEAFTNIRDFLLLRMATNLQSLTGKREHRERNQPVPASNINTLAITMLKPRKKAKALPKT
B2: in data set [2], the “decrease in activity (kcat) versus wildtype” value was approximately 10 fold.

B3: D287A/D288A: double point mutant of Rtt109 (protein, UniProt Q07794 1-436, looked up, variant D287A D288A)
Histone acetyltransferase …: MSLNDFLSSVLPVSEQFEYLSLQSIPLETHAVVTPNKDDKRVPKSTIKTQHFFSLFHQGKVFFSLEVYVYVTLWDEADAERLIFVSKADTNGYCNTRVSVRDITKIILEFILSIDPNYYLQKVKPAIRSYKKISPELISAASTPARTLRILARRLKQSGSTVLKEIESPRFQQDLYLSFTCPREILTKICLFTRPASQYLFPDSSKNSKKHILNGEELMKWWGFILDRLLIECFQNDTQAKLRIPGEDPARVRSYLRGMKYPLWQVGDIFTSKENSLAVYNIPLFPAAPKARFIHQLAEEDRLLKVSLSSFWIELQERQEFKLSVTSSVMGISGYSLATPSLFPSSADVIVPKSRKQFRAIKKYITGEEYDTEEGAIEAFTNIRDFLLLRMATNLQSLTGKREHRERNQPVPASNINTLAITMLKPRKKAKALPKT
For the molecule B3, the “downward shift of apparent pKa versus wildtype” value in data set [3] (D287A/D288A kcat pH profile) is recorded as approximately 1 pH unit. Also, the “pKa from kcat pH profile” value in data set [3] (D287A/D288A, ATE buffer, pH 7-9, 25 °C, 400 μM H3 peptide, 60 μM AcCoA, twice in duplicate, Eq. 11) amounted to 7.5 ± 0.1. Also, the “decrease of kcat versus wildtype” value in data set [4] was ~100 fold and 50-100 fold.

B4: E338Q: Esa1 with mutation of the general base catalyst Glu-338 (protein, UniProt Q08649 1-445, looked up, variant E338Q)
Histone acetyltransferase ESA1: MSHDGKEEPGIAKKINSVDDIIIKCQCWVQKNDEERLAEILSINTRKAPPKFYVHYVNYNKRLDEWITTDRINLDKEVLYPKLKATDEDNKKQKKKKATNTSETPQDSLQDGVDGFSRENTDVMDLDNLNVQGIKDENISHEDEIKKLRTSGSMTQNPHEVARVRNLNRIIMGKYEIEPWYFSPYPIELTDEDFIYIDDFTLQYFGSKKQYERYRKKCTLRHPPGNEIYRDDYVSFFEIDGRKQRTWCRNLCLLSKLFLDHKTLYYDVDPFLFYCMTRRDELGHHLVGYFSKEKESADGYNVACILTLPQYQRMGYGKLLIEFSYELSKKENKVGSPQKPLSDLGLLSYRAYWSDTLITLLVEHQKEITIDEISSMTSMTTTDILHTAKTLNILRYYKGQHIIFLNEDILDRYNRLKAKKRRTIDPNRLIWKPPVFTASQLRFAW
Regarding B4, the “upward shift of pKa of ionizable group” value in the data set on Esa1 is 1.4 pH-units.
